Laboratory results from the supplement of paper PMC7877785.
± gives the uncertainty stated by the source.

Assay: self-splicing fitness, log relative to wild type (ln ratio); higher = more splicing; Tetrahymena group I intron in knt gene, E. coli kanamycin selection, DiMSum; sequences stand for … in CUCUCU…GGAGGGAAAAGUUAUCAGGCAUGCACCUGGUAGCUAGUCUUUAAACCAAUAGAUUGCAUCGGUUUAAAAGGCAAGACCGUCAAAUUGCGGGAAAGGGGUCAACAGCCGUUCAGUACCAAGUCUCAGGGGAAACUUUGAGAUGGCCUUGCAAAGGGUAUGGUAAUAAGCUGACGGACAUGGUCCUAACCACGCAGCCAAGUCCUAAGUCAACAGAUCUUCUGUUGAUAUGGAUGCAGUUCACAGACUAAAUGUCGGUCGGGGAAGAUGUAUUCUUCUCAUAAGAUAUAGUCGGACCUCUCCUUAAUGGGAGCUAGCGGAUGAAGUGAUGCAACACUGGAGCCGCUGGGAACUAAUUUGUAUGCGAAAGUAUAUUGAUUAGUUUUGGAGUACUCGUGGUCG
How it was run: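 DiMSum derived fitness as the error-weighted combination of fold changes across replicates, kanamycin versus no kanamycin, normalised to wild type. E. coli BL21(DE3) held the library, which randomised all eight P1ex-region intron nucleotides within the knt kanamycin-resistance gene on pET-22b(+). Six replicate transformations grew overnight at 37°C or 30°C on LB agar with or without 25 μg/mL kanamycin, also containing 100 μg/mL carbenicillin, 50 μM IPTG and 0.2% rhamnose, and pooled colonies were amplicon-sequenced on an Illumina HiSeq 2500.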

In the case of UCUUAGCAAUAUUACGCGGC, the “self-splicing fitness (ln)” value (30 °C) is reported as -2.44 ± 0.3 and the “self-splicing fitness (ln)” value (37 °C) is reported as -0.722 ± 0.36.
With UCUUAGCAAUAUUACGCUUC the “self-splicing fitness (ln)” value (30 °C) was -4.09 ± 0.35 and the “self-splicing fitness (ln)” value (37 °C) was -2.41 ± 0.19.
For UCUUAGCAAUAUUACGGAAG, the “self-splicing fitness (ln)” value (37 °C) was -1.81 ± 0.41.
With UCUUAGCAAUAUUACGGAGA the “self-splicing fitness (ln)” value (37 °C) was -2.76 ± 0.38.
In the case of UCUUAGCAAUAUUACGGCAG, the “self-splicing fitness (ln)” value (30 °C) is reported as -3.36 ± 0.26 and the “self-splicing fitness (ln)” value (37 °C) is reported as -2.23 ± 0.3.
With UCUUAGCAAUAUUACGGCAU the “self-splicing fitness (ln)” value (30 °C) was -3.42 ± 0.33 and the “self-splicing fitness (ln)” value (37 °C) was -1.75 ± 0.23.
In the case of UCUUAGCAAUAUUACGGCCG, the “self-splicing fitness (ln)” value (30 °C) is reported as -2.11 ± 0.37 and the “self-splicing fitness (ln)” value (37 °C) is reported as -0.349 ± 0.33.
For UCUUAGCAAUAUUACGGGAA, the “self-splicing fitness (ln)” value (37 °C) was -0.457 ± 0.3.
In the case of UCUUAGCAAUAUUACGGUAG, the “self-splicing fitness (ln)” value (37 °C) is reported as -2.11 ± 0.41.
With UCUUAGCAAUAUUACGUCCA the “self-splicing fitness (ln)” value (30 °C) was -1.92 ± 0.13 and the “self-splicing fitness (ln)” value (37 °C) was -1.93 ± 0.18.
For UGAAAGCAAUAUUACGAACG, the “self-splicing fitness (ln)” value (30 °C) was 0.0634 ± 0.17 and the “self-splicing fitness (ln)” value (37 °C) was 0.684 ± 0.2.
In the case of UGAAAGCAAUAUUACGACGA, the “self-splicing fitness (ln)” value (30 °C) is reported as -0.661 ± 0.12 and the “self-splicing fitness (ln)” value (37 °C) is reported as -0.101 ± 0.12.
For UGAAAGCAAUAUUACGAGUA, the “self-splicing fitness (ln)” value (30 °C) was -1.45 ± 0.1 and the “self-splicing fitness (ln)” value (37 °C) was -0.821 ± 0.092.
For UGAAAGCAAUAUUACGAUAG, the “self-splicing fitness (ln)” value (30 °C) was -1.07 ± 0.098 and the “self-splicing fitness (ln)” value (37 °C) was -0.612 ± 0.098.
With UGAAAGCAAUAUUACGCAAU the “self-splicing fitness (ln)” value (30 °C) was -2.16 ± 0.24 and the “self-splicing fitness (ln)” value (37 °C) was 0.457 ± 0.23.
With UGAAAGCAAUAUUACGCAGU the “self-splicing fitness (ln)” value (30 °C) was -3.25 ± 0.22 and the “self-splicing fitness (ln)” value (37 °C) was -1.3 ± 0.13.
With UGAAAGCAAUAUUACGCCGG the “self-splicing fitness (ln)” value (30 °C) was -0.876 ± 0.11 and the “self-splicing fitness (ln)” value (37 °C) was -0.346 ± 0.15.
With UGAAAGCAAUAUUACGCGUC the “self-splicing fitness (ln)” value (30 °C) was -2.59 ± 0.31 and the “self-splicing fitness (ln)” value (37 °C) was -2.56 ± 0.34.
With UGAAAGCAAUAUUACGGCUC the “self-splicing fitness (ln)” value (30 °C) was -1.4 ± 0.13 and the “self-splicing fitness (ln)” value (37 °C) was -0.842 ± 0.12.
In the case of UGAAAGCAAUAUUACGGGGC, the “self-splicing fitness (ln)” value (30 °C) is reported as -3.89 ± 0.23 and the “self-splicing fitness (ln)” value (37 °C) is reported as -2.73 ± 0.19.
For UGAAAGCAAUAUUACGGUAC, the “self-splicing fitness (ln)” value (30 °C) was -3.27 ± 0.32 and the “self-splicing fitness (ln)” value (37 °C) was -2.07 ± 0.24.
In the case of UGAAAGCAAUAUUACGGUUU, the “self-splicing fitness (ln)” value (30 °C) is reported as -1.87 ± 0.1 and the “self-splicing fitness (ln)” value (37 °C) is reported as -1.16 ± 0.12.
With UGAAAGCAAUAUUACGUACU the “self-splicing fitness (ln)” value (30 °C) was -0.121 ± 0.089 and the “self-splicing fitness (ln)” value (37 °C) was -0.476 ± 0.091.
For UGAAAGCAAUAUUACGUCUC, the “self-splicing fitness (ln)” value (30 °C) was -3.36 ± 0.24 and the “self-splicing fitness (ln)” value (37 °C) was -2.18 ± 0.23.
In the case of UGAAAGCAAUAUUACGUGCA, the “self-splicing fitness (ln)” value (30 °C) is reported as 0.0492 ± 0.078 and the “self-splicing fitness (ln)” value (37 °C) is reported as 0.75 ± 0.098.
In the case of UGAAAGCAAUAUUACGUGUG, the “self-splicing fitness (ln)” value (30 °C) is reported as -1.67 ± 0.077 and the “self-splicing fitness (ln)” value (37 °C) is reported as -0.52 ± 0.081.
In the case of UGAAAGCAAUAUUACGUUAU, the “self-splicing fitness (ln)” value (30 °C) is reported as -3.73 ± 0.19 and the “self-splicing fitness (ln)” value (37 °C) is reported as -1.76 ± 0.11.
For UGAAAGCAAUAUUACGUUGG, the “self-splicing fitness (ln)” value (30 °C) was -2.36 ± 0.091 and the “self-splicing fitness (ln)” value (37 °C) was -1.66 ± 0.11.
With UGAAAGCAAUAUUACGUUUG the “self-splicing fitness (ln)” value (30 °C) was -2.94 ± 0.13 and the “self-splicing fitness (ln)” value (37 °C) was -0.682 ± 0.11.
In the case of UGACAGCAAUAUUACGAACG, the “self-splicing fitness (ln)” value (30 °C) is reported as 0.00619 ± 0.095 and the “self-splicing fitness (ln)” value (37 °C) is reported as 0.256 ± 0.1.
For UGACAGCAAUAUUACGACAA, the “self-splicing fitness (ln)” value (30 °C) was -0.197 ± 0.087 and the “self-splicing fitness (ln)” value (37 °C) was 0.15 ± 0.1.
In the case of UGACAGCAAUAUUACGACCA, the “self-splicing fitness (ln)” value (30 °C) is reported as -0.143 ± 0.1 and the “self-splicing fitness (ln)” value (37 °C) is reported as 0.216 ± 0.15.
With UGACAGCAAUAUUACGACUG the “self-splicing fitness (ln)” value (30 °C) was -0.341 ± 0.06 and the “self-splicing fitness (ln)” value (37 °C) was 0.371 ± 0.091.
With UGACAGCAAUAUUACGAGUG the “self-splicing fitness (ln)” value (30 °C) was -1.09 ± 0.054 and the “self-splicing fitness (ln)” value (37 °C) was -0.833 ± 0.077.
In the case of UGACAGCAAUAUUACGCAAG, the “self-splicing fitness (ln)” value (30 °C) is reported as -3.51 ± 0.27 and the “self-splicing fitness (ln)” value (37 °C) is reported as -2.73 ± 0.21.
In the case of UGACAGCAAUAUUACGCCGG, the “self-splicing fitness (ln)” value (30 °C) is reported as -0.618 ± 0.12 and the “self-splicing fitness (ln)” value (37 °C) is reported as -0.791 ± 0.15.
For UGACAGCAAUAUUACGCCUC, the “self-splicing fitness (ln)” value (30 °C) was -3.41 ± 0.26 and the “self-splicing fitness (ln)” value (37 °C) was -3.24 ± 0.47.
In the case of UGACAGCAAUAUUACGCCUG, the “self-splicing fitness (ln)” value (30 °C) is reported as -0.292 ± 0.1 and the “self-splicing fitness (ln)” value (37 °C) is reported as 0.595 ± 0.14.
